Variants at the floor of the assay were thinned out.
B1: TPR 5TU (parent)
chain: GGAUCUUCUCGAUCUAACAAAAAAGACAAAUCUGCCACAAAGCUUGAGAGCAUCUUCGGAUGCAGAGGCGGCAGCCUUCGGUGGCGCGAUAGCGCCAACGUUCUCAACUAUGACACGCAAAACGCGUGCUCCGUUGAAUGGAGUUUAUCAUG

Variants of: B1
Test: polymerase ribozyme fitness, log enrichment relative to wild type (log ratio); higher = more active; in vitro selection for triplet polymerase activity
Outline: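 Fitness is a logarithmic measure of how a genotype enriched relative to the wild type, with replicate averages weighted by inverse variance. The logarithm uses base 2, and enrichment came from Illumina sequencing of input and output libraries. Those libraries were PCR-built, transcribed mutants of each subunit of a heterodimeric triplet polymerase ribozyme, passed through one triplicate in vitro selection round that included frozen incubation at −7 °C, gel excision of extended constructs and streptavidin-bead capture. Genotypes were kept only if they had ≥10 input reads and ≥1 read per output.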

Variant	polymerase ribozyme fitness (log ratio)
GGAUCUUCUCGAUUUAACAAAAAAGACAAAUCGGCCACAAAGCUUGAGAGCAUCUUCGCAUGCAGAGGCGGCAGCCUUCGGUGGCGUGAUAGCGCCAACGUUCUCAACUAUGACACGCAAAACUCGUGCUCCGUUGAAUGCAGUUUAUCAUU [C14U U33G G59C C87U G124U G141C G152U]	-4.16
GGAUCUUCUCGAUCAAACCAAAUAGACAAAUCUGCCACAAAGCUUCAGAGCAGCUUAGGAUGCAGAGACGACAGCCUUCGGUGGCGCGAUAGGGCCAACGUUCUCAACUAGGACACGCAAAACGCGUGCUCCGUUGAAUGUAGUUUAUCAUG [U15A A19C A23U G46C U53G C57A G68A G71A C93G U111G G141U]	≤ -4.2
GGAUCUUCUCGAUUUAACAAAAAAGACAAAUCUGCCACAAAGCUGGGCAGCAUCUUCGGAUGCAGAGGUGGCAGCGUUCGGUGGCGCGAUAGCGCCAACGUUCUCAACAAUGACACGCAAAACGCGUGCUCCGUUGAAUGGAGUUUAUCAUG [C14U U45G A47G G48C C69U C76G U109A]	≤ -4.2
GGAUCUUCUCGAUUUAACAAAAAAGACAAAUCUGCCACAAAGCUUGAGAGCAUCUUCGGAUGCAGAGGCGGCAGCCUCCGGUGGCGCGAUAGCGCCAACGUUCUCAACUAUGACACGCAAAACGCGUGCUCCGUUGAAUGGAGUUUAUCAUG [C14U U78C]	-2.43
GGAUCUUCUCGAUUUAACAAAAAAGACAAAUCUGCCACAAAGCUUGAGAGCAUCUUCGGAUGCAGAGGCGGCAGCCUUCGGUGGCGCGAUAGCACCAACGUUCUCAAUUAUGACACGCAAAACGCGUGCUCCGUUGUAUGGAGUUUAUCAUG [C14U G94A C108U A137U]	-4.03
GGAUCUUCUCGAUUCUACGAAAAAGACAAUUCUGCCACCAAGCUUGAUAACAUCUUCGGAUGCAGAGGCUGCAGCCUUCGGUGGCGCGAUAGCGCCAACGUUCUCAACUAUGUCACGCAAAACGCGUGCUCCGUUGAAUGUAGUUUAUCAUG [C14U U15C A16U A19G A30U A39C G48U G50A G70U A113U G141U]	≤ -4.2
GGAUCUUCUCGAUUUAACAAAAAAGACAAAUCUGCCACAAAGCUUGAGAGCAUCUUCGAAUGCAGAGGCGGCAGCCUUCGGUGGCGUGAGAGCGCCAACGUUCUCAACUAUGAAACGCAAAACGCGUGCUCCGUUGAAUGGAGUUUAUCAUG [C14U G59A C87U U90G C114A]	≤ -4.2
GGAUCUUCUCGAUUUAACAAAAAAGACAAAUCUGCCACAAAGCUUGAGAGCAUCUUCGGAUGCAGAGGCGGCAGCCUUCGGUGGCGCGAUAGCGCCAACGUUCUCAACUAUGACACGCAAAAGGCGUGCUCCGUUGAAUGGAGUUUAUCAUG [C14U C123G]	-1.9
GGAUCUUCUCGAUUUAACAAAAAAGACAAAUCUGCCACAAAGCUUGAGAGCAUCUUCGGAUGCACAGGCGGCAGCCUUCGGUGGCGGGAUAGCGCUAACGUUCUCAACUAUGACACGCAAAACGCGUGCUCUGUUGAAGGGAGUUUAUCAUG [C14U G65C C87G C96U C132U U139G]	≤ -4.2
GGAUCUUCUCGAUUCAACAAAAUAGACAAAUCUGCCACAAUGCUUGAGAGCAUCUUCGGAUGCAGAGGCGGCAGCCUUCGGUGGAGCGAUAGCGCCAACGUUCUCAACUAUGACACGCAAAACUCGUGCUCCGUUGAAUGGAGUUUAUCAUG [C14U U15C A23U A41U C85A G124U]	≤ -4.2
GGAUCUUCUCGAUUUAACAAAAAAGACAAAUCUGCCACAAAACUUGAGAGCAUCUUCGAAUGCAGAGGCGGCAGCCUUCGGUGGCGAGAUAGCGCCAACGUUCUCAACUAUGACACGCAAAACGCGUGCUCCGUUGAAUGGAGUUUAUCAUG [C14U G42A G59A C87A]	≤ -4.2
GGAUCUUCUCGAUUUAACAAAAAAGACAAAUCUACCACAAAGCUUGAGAGCAUCUUCGGAUGCAGAGGCGGCAGCCUUCGGUGUCGCGAUAGCGCCAACGUUCUCAACUAUGACACGCAAAACGCGUGCUCCGUUGAAUUGAGUUUAUCAUG [C14U G34A G84U G140U]	≤ -4.2
GGAUCUUCUCGAUUAAACAGAAAAGACAAAUCUGCCAUAAAGCUUGAGAGCAUCUUUGGAUGCAGAGGCGGCAGCCUUCGGUGGCGCGACAGCGCCAACGUGCUCAACUAUGACACGCGAACCGCGUGCUCCGUUGAAUGGAGUUUAUCAUG [C14U U15A A20G C38U C57U U90C U102G A119G A122C]	≤ -4.2
GGAUCUUCUCGAUUUAACAAAAAAGACAAAUCUGCCACAAAGCUUGAGAGCAUCUUCGGAUGCAGAGGCGGCAGCCUUCGGUGGCUCGAUAGCGCCAACGUUCUCAACUAUGACACGCAAAACGCGUGCUCCGUUGAAUGGAGUUUAUCAUG [C14U G86U]	-3.21
GGAUCUUCUCGAUUUAACAAAAAAGACAAAUCUGCCACAAAGCUUGAGAGCAUCUUCGGAUGCAGAGGCGGCAGCCUUCGGUGCCGCGAUAGCGCCAACGUUCUCAACUAUGACACGCAAAGCGCGUGCUCCGUUAAAUGGAGUUUAUCAUG [C14U G84C A122G G136A]	-3.51
GGAUCUUCUCGAUUUAACAAAAAAGACAAAUCUGCCACAAAGCUUGAGAGCAACUUCGGAUGCAGAGGCGGCAGCCUUCGGUGGCGCGAUAGCGCCAACGUUCUCAACUAUGACACGCAAAACGCGUGCUCCGUUGAAUGGAGUUUAUCAUG [C14U U53A]	-2.41
GGAUCUUCUCGAUUUAACAAAAAAGACAAAUCUGCCACAAAGCUUGAGAGCAUCUUCGGAUGCAGAGGCGGCAGCCUUCGGUAGCGCGAUAGCGCCAACGUUCUCAACUAUGACAAGCAAAACGCGUGCUCCGUUGAAUGAAGUUUAUCAUG [C14U G83A C116A G141A]	-3.95
GGAUCUUCUCGAUCAAACACAAAAGACAAAUCUGCCACAAAGCUUGAGAGCAUCUUCGGAUGCAGAGGCGGCAGCUUUCGGGGGCGCGAUUGCGCCAACGUUCUCAACUAUGACACGAAAAACGCGUGCUCCGUUGAAUCGAGUUUAUCAUG [U15A A20C C76U U82G A91U C118A G140C]	≤ -4.2
GGAUCUUCUCGAUCAAUCAAAAAAGACAAAUCUGCCACAAAGCUUGAGAGCAUCUUCGGAUGCAUAGGCGGCAGCCUUCGGUGGCGCGAUAGCGCCAACGUUCUCAACUAUGACACGCAAAACGCGUGCUCCGUUGAAUGGAGUUUAUCAUG [U15A A17U G65U]	≤ -4.2

— the RNAGym collection of RNA variant scans (doi:10.1073/pnas.2313332121)
